Measured values: patent US10941182 (Amgen, dated 2021)
Starred links: 1 amine or outer side, 2 acyl side, 3 side chain; linkers in the order of their positions; H or OH if unused. Non-standard residues stand in square brackets, D forms with d. *: point of attachment. Oic = O=C(O)[C@@H]1C[C@@H]2CCCC[C@@H]2N1; Phe(4-Cl) = N[C@@H](Cc1ccc(Cl)cc1)C(=O)O; γGlu = O=C(O)[C@H](CCC(=O)[*:2])N[*:1]; 2Nal = N[C@@H](Cc1ccc2ccccc2c1)C(=O)O; NMehArg = CN[C@@H](CCCCNC(=N)N)C(=O)O; NMeR = CN[C@@H](CCCNC(=N)N)C(=O)O; Tridecanoyl = CCCCCCCCCCCCC(=O)*; hArg = N=C(N)NCCCC[C@H](N)C(=O)O; Cha = N[C@@H](CC1CCCCC1)C(=O)O; Nle = CCCC[C@H](N)C(=O)O; AEEA = NCCOCCOCC(=O)O; Aib = CC(C)(N)C(=O)O; βAla = NCCC(=O)O

T1: rat APJ receptor (rat, UniProt Q9JHG3 1-377)
T1 sequence (looked up): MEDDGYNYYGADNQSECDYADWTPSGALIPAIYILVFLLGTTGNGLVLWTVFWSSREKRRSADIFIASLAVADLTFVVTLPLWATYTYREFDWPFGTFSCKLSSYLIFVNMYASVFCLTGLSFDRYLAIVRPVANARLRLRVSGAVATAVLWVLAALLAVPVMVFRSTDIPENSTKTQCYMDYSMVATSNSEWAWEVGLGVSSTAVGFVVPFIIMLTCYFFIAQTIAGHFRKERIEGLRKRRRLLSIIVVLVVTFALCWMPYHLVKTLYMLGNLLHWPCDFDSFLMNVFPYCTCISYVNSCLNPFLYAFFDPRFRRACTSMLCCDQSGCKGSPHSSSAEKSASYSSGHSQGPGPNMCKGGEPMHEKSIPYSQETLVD

T2: human APJ receptor (human, UniProt P35414 1-380)
T2 sequence (looked up): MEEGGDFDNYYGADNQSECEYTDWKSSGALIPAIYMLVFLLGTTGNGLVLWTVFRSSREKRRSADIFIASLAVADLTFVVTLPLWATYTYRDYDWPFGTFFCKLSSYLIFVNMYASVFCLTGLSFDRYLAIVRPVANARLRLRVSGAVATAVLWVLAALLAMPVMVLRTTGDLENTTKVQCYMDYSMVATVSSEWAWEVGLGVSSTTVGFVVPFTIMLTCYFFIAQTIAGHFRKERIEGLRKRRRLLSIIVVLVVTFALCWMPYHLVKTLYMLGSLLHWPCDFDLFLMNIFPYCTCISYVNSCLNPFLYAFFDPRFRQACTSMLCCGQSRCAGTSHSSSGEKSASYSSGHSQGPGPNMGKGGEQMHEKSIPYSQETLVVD

B1: Apelin polypeptide SEQ ID NO: 430 (peptide)
peptide: Tridecanoyl-[γGlu][AEEA][AEEA]Q[dR]P[dR][Cha]SHKG[Oic][Nle]P[Phe(4-Cl)]-OH
SMILES: CCCCCCCCCCCCC(=O)N[C@@H](CCC(=O)NCCOCCOCC(=O)NCCOCCOCC(=O)N[C@@H](CCC(N)=O)C(=O)N[C@H](CCCNC(=N)N)C(=O)N1CCC[C@H]1C(=O)N[C@H](CCCNC(=N)N)C(=O)N[C@@H](CC1CCCCC1)C(=O)N[C@@H](CO)C(=O)N[C@@H](Cc1c[nH]cn1)C(=O)N[C@@H](CCCCN)C(=O)NCC(=O)N1[C@H](C(=O)N[C@@H](CCCC)C(=O)N2CCC[C@H]2C(=O)N[C@@H](Cc2ccc(Cl)cc2)C(=O)O)C[C@@H]2CCCC[C@@H]21)C(=O)O
B2: Apelin polypeptide SEQ ID NO: 425 (peptide)
peptide: Tridecanoyl-[γGlu][AEEA][AEEA]QRP[NMeR]LSHKGP[Nle][βAla][Phe(4-Cl)]-OH
SMILES: CCCCCCCCCCCCC(=O)N[C@@H](CCC(=O)NCCOCCOCC(=O)NCCOCCOCC(=O)N[C@@H](CCC(N)=O)C(=O)N[C@@H](CCCNC(=N)N)C(=O)N1CCC[C@H]1C(=O)N(C)[C@@H](CCCNC(=N)N)C(=O)N[C@@H](CC(C)C)C(=O)N[C@@H](CO)C(=O)N[C@@H](Cc1c[nH]cn1)C(=O)N[C@@H](CCCCN)C(=O)NCC(=O)N1CCC[C@H]1C(=O)N[C@@H](CCCC)C(=O)NCCC(=O)N[C@@H](Cc1ccc(Cl)cc1)C(=O)O)C(=O)O
B3: Apelin polypeptide SEQ ID NO: 427 (peptide)
peptide: Tridecanoyl-[γGlu][AEEA][AEEA]QRPPLSHKGP[Nle]P[Phe(4-Cl)]-OH
SMILES: CCCCCCCCCCCCC(=O)N[C@@H](CCC(=O)NCCOCCOCC(=O)NCCOCCOCC(=O)N[C@@H](CCC(N)=O)C(=O)N[C@@H](CCCNC(=N)N)C(=O)N1CCC[C@H]1C(=O)N1CCC[C@H]1C(=O)N[C@@H](CC(C)C)C(=O)N[C@@H](CO)C(=O)N[C@@H](Cc1c[nH]cn1)C(=O)N[C@@H](CCCCN)C(=O)NCC(=O)N1CCC[C@H]1C(=O)N[C@@H](CCCC)C(=O)N1CCC[C@H]1C(=O)N[C@@H](Cc1ccc(Cl)cc1)C(=O)O)C(=O)O
B4: Apelin polypeptide SEQ ID NO: 470 (peptide)
peptide: Tridecanoyl-[γGlu][AEEA][AEEA]QRP[NMeR]LSHKGP[Nle]P[2Nal]-OH
SMILES: CCCCCCCCCCCCC(=O)N[C@@H](CCC(=O)NCCOCCOCC(=O)NCCOCCOCC(=O)N[C@@H](CCC(N)=O)C(=O)N[C@@H](CCCNC(=N)N)C(=O)N1CCC[C@H]1C(=O)N(C)[C@@H](CCCNC(=N)N)C(=O)N[C@@H](CC(C)C)C(=O)N[C@@H](CO)C(=O)N[C@@H](Cc1c[nH]cn1)C(=O)N[C@@H](CCCCN)C(=O)NCC(=O)N1CCC[C@H]1C(=O)N[C@@H](CCCC)C(=O)N1CCC[C@H]1C(=O)N[C@@H](Cc1ccc2ccccc2c1)C(=O)O)C(=O)O
B5: Apelin polypeptide SEQ ID NO: 526 (peptide)
peptide: Tridecanoyl-[γGlu][AEEA][AEEA][dQ]RPE[Cha]SHKG[Oic][Nle][Aib][Phe(4-Cl)]-OH
SMILES: CCCCCCCCCCCCC(=O)N[C@@H](CCC(=O)NCCOCCOCC(=O)NCCOCCOCC(=O)N[C@H](CCC(N)=O)C(=O)N[C@@H](CCCNC(=N)N)C(=O)N1CCC[C@H]1C(=O)N[C@@H](CCC(=O)O)C(=O)N[C@@H](CC1CCCCC1)C(=O)N[C@@H](CO)C(=O)N[C@@H](Cc1c[nH]cn1)C(=O)N[C@@H](CCCCN)C(=O)NCC(=O)N1[C@H](C(=O)N[C@@H](CCCC)C(=O)NC(C)(C)C(=O)N[C@@H](Cc2ccc(Cl)cc2)C(=O)O)C[C@@H]2CCCC[C@@H]21)C(=O)O
B6: Apelin polypeptide SEQ ID NO: 527 (peptide)
peptide: Tridecanoyl-[γGlu][AEEA][AEEA][dQ]RP[dE][Cha]SHKG[Oic][Nle][Aib][Phe(4-Cl)]-OH
SMILES: CCCCCCCCCCCCC(=O)N[C@@H](CCC(=O)NCCOCCOCC(=O)NCCOCCOCC(=O)N[C@H](CCC(N)=O)C(=O)N[C@@H](CCCNC(=N)N)C(=O)N1CCC[C@H]1C(=O)N[C@H](CCC(=O)O)C(=O)N[C@@H](CC1CCCCC1)C(=O)N[C@@H](CO)C(=O)N[C@@H](Cc1c[nH]cn1)C(=O)N[C@@H](CCCCN)C(=O)NCC(=O)N1[C@H](C(=O)N[C@@H](CCCC)C(=O)NC(C)(C)C(=O)N[C@@H](Cc2ccc(Cl)cc2)C(=O)O)C[C@@H]2CCCC[C@@H]21)C(=O)O
B7: Apelin polypeptide SEQ ID NO: 477 (peptide)
peptide: Tridecanoyl-[γGlu][AEEA][AEEA]QRPELSHKGP[Nle]P[Phe(4-Cl)]-OH
SMILES: CCCCCCCCCCCCC(=O)N[C@@H](CCC(=O)NCCOCCOCC(=O)NCCOCCOCC(=O)N[C@@H](CCC(N)=O)C(=O)N[C@@H](CCCNC(=N)N)C(=O)N1CCC[C@H]1C(=O)N[C@@H](CCC(=O)O)C(=O)N[C@@H](CC(C)C)C(=O)N[C@@H](CO)C(=O)N[C@@H](Cc1c[nH]cn1)C(=O)N[C@@H](CCCCN)C(=O)NCC(=O)N1CCC[C@H]1C(=O)N[C@@H](CCCC)C(=O)N1CCC[C@H]1C(=O)N[C@@H](Cc1ccc(Cl)cc1)C(=O)O)C(=O)O
B8: Apelin polypeptide SEQ ID NO: 435 (peptide)
peptide: Tridecanoyl-[γGlu][AEEA][AEEA]Q[dR]P[NMehArg][Cha]SHKGP[Nle]P[Phe(4-Cl)]-OH
SMILES: CCCCCCCCCCCCC(=O)N[C@@H](CCC(=O)NCCOCCOCC(=O)NCCOCCOCC(=O)N[C@@H](CCC(N)=O)C(=O)N[C@H](CCCNC(=N)N)C(=O)N1CCC[C@H]1C(=O)N(C)[C@@H](CCCCNC(=N)N)C(=O)N[C@@H](CC1CCCCC1)C(=O)N[C@@H](CO)C(=O)N[C@@H](Cc1c[nH]cn1)C(=O)N[C@@H](CCCCN)C(=O)NCC(=O)N1CCC[C@H]1C(=O)N[C@@H](CCCC)C(=O)N1CCC[C@H]1C(=O)N[C@@H](Cc1ccc(Cl)cc1)C(=O)O)C(=O)O
B9: Apelin polypeptide SEQ ID NO: 480 (peptide)
peptide: Tridecanoyl-[γGlu][AEEA][AEEA][dR]Q[hArg]P[hArg][Cha]SHKG[Oic][Nle]P[Phe(4-Cl)]-OH
SMILES: CCCCCCCCCCCCC(=O)N[C@@H](CCC(=O)NCCOCCOCC(=O)NCCOCCOCC(=O)N[C@H](CCCNC(=N)N)C(=O)N[C@@H](CCC(N)=O)C(=O)N[C@@H](CCCCNC(=N)N)C(=O)N1CCC[C@H]1C(=O)N[C@@H](CCCCNC(=N)N)C(=O)N[C@@H](CC1CCCCC1)C(=O)N[C@@H](CO)C(=O)N[C@@H](Cc1c[nH]cn1)C(=O)N[C@@H](CCCCN)C(=O)NCC(=O)N1[C@H](C(=O)N[C@@H](CCCC)C(=O)N2CCC[C@H]2C(=O)N[C@@H](Cc2ccc(Cl)cc2)C(=O)O)C[C@@H]2CCCC[C@@H]21)C(=O)O
B10: Apelin polypeptide SEQ ID NO: 479 (peptide)
peptide: Tridecanoyl-[γGlu][AEEA][AEEA][dR]Q[hArg]P[NMeR][Cha]SHKG[Oic][Nle]P[Phe(4-Cl)]-OH
SMILES: CCCCCCCCCCCCC(=O)N[C@@H](CCC(=O)NCCOCCOCC(=O)NCCOCCOCC(=O)N[C@H](CCCNC(=N)N)C(=O)N[C@@H](CCC(N)=O)C(=O)N[C@@H](CCCCNC(=N)N)C(=O)N1CCC[C@H]1C(=O)N(C)[C@@H](CCCNC(=N)N)C(=O)N[C@@H](CC1CCCCC1)C(=O)N[C@@H](CO)C(=O)N[C@@H](Cc1c[nH]cn1)C(=O)N[C@@H](CCCCN)C(=O)NCC(=O)N1[C@H](C(=O)N[C@@H](CCCC)C(=O)N2CCC[C@H]2C(=O)N[C@@H](Cc2ccc(Cl)cc2)C(=O)O)C[C@@H]2CCCC[C@@H]21)C(=O)O
B11: Apelin polypeptide SEQ ID NO: 465 (peptide)
peptide: Tridecanoyl-[γGlu][AEEA][AEEA]QRPQLSHKGP[Nle]P[Phe(4-Cl)]-OH
SMILES: CCCCCCCCCCCCC(=O)N[C@@H](CCC(=O)NCCOCCOCC(=O)NCCOCCOCC(=O)N[C@@H](CCC(N)=O)C(=O)N[C@@H](CCCNC(=N)N)C(=O)N1CCC[C@H]1C(=O)N[C@@H](CCC(N)=O)C(=O)N[C@@H](CC(C)C)C(=O)N[C@@H](CO)C(=O)N[C@@H](Cc1c[nH]cn1)C(=O)N[C@@H](CCCCN)C(=O)NCC(=O)N1CCC[C@H]1C(=O)N[C@@H](CCCC)C(=O)N1CCC[C@H]1C(=O)N[C@@H](Cc1ccc(Cl)cc1)C(=O)O)C(=O)O

target: T1, rat APJ receptor; assay: cell-based or functional assay

EC50 Rat APJ Receptor (GTPγS assay)	Binder
2840 pM	B1
157 pM	B2
4350 pM	XXXQRPRLSHKGPXPF ({TDA}[AC4Abu][Aeea][Aeea]QrP[NMehArg][BLeu]SHKGP[Nle]P[4-Cl-F]{COOH}) [Apelin polypeptide SEQ ID NO: 384]
93.5 pM	XXXQRPRLSHKGPXXF ({TDA}[AC4Abu][Aeea][Aeea]QRP[NMeArg]LSHKGP[Nle][Pip][4-Cl-F]{COOH}) [Apelin polypeptide SEQ ID NO: 429]
313 pM	B3
150 pM	B4
7200 pM	B5
227000 pM	B6
691 pM	B7
1150 pM	B8
271 pM	B9
806 pM	B10
174 pM	B11

target: T2, human APJ receptor; assay: cell-based or functional assay

EC50 Human APJ Receptor (GTPγS assay)	Binder
1220 pM	B1
93.7 pM	B2
956 pM	XXXQRPRLSHKGPXPF ({TDA}[AC4Abu][Aeea][Aeea]QrP[NMehArg][BLeu]SHKGP[Nle]P[4-Cl-F]{COOH}) [Apelin polypeptide SEQ ID NO: 384]
66.3 pM	XXXQRPRLSHKGPXXF ({TDA}[AC4Abu][Aeea][Aeea]QRP[NMeArg]LSHKGP[Nle][Pip][4-Cl-F]{COOH}) [Apelin polypeptide SEQ ID NO: 429]
170 pM	B3
38 pM	B4
2020 pM	B5
108000 pM	B6
423 pM	B7
460 pM	B8
99.8 pM	B9
408 pM	B10
69.2 pM	B11
